Substitutions are numbered along the chain they refer to.
B1: CL-32416-IgG (antibody, V domains shown)
VH: EVQLVQSGSELKKPGASVKVSCKASGYTFTDYGMYWVRQAPGQGLEWMGWIDTETGEPTYADDFKGRFVFSLDTSVSTAYLQISSLKAEDTAVYYCARTNYYYRSYMFYFDYWGQGTMVTVSS
VL: EIVLTQSPATLSLSPGERATLSCRASESVSTHMHWYQQKPGQAPRLLIYGASNLESGVPARFSGSGSGTDFTLTISSLEPEDFAVYFCQQSWNDPFTFGQGTKLEIK
notes: also called h4G8 CL-32416
B2: CL-34540-IgG (antibody, V domains shown)
VH: B1 VH with E57Q
VL: B1 VL with S30G, T31K, G50A, F87Y, N93Y, F96L
notes: also called h4G8 CL-34540
B3: CL-34538-IgG (antibody, V domains shown)
VH: B1 VH with R104P
VL: B1 VL with E27Q, S91T, N93Y, F96L
notes: also called h4G8 CL-34538
B4: CL-34565-IgG (antibody, V domains shown)
VH: B1 VH with E57D, S105N
VL: B1 VL with S22F, E27Q, T31N, N53I, F87Y, N93Y, F96I
notes: also called h4G8 CL-34565
B5: CL-34475-IgG (antibody, V domains shown)
VH: B1 VH with R104S
VL: B1 VL with E27Q, V58I, F87Y, N93Y, F96L
notes: also called h4G8 CL-34475
B6: CL-34522-IgG (antibody, V domains shown)
VH: B1 VH with T30E, D31N, R104S
VL: B1 VL with E27Q, S30G, N53K, F87Y, N93Y, F96L
notes: also called h4G8 CL-34522
B7: CL-34633-IgG (antibody, V domains shown)
VH: B1 VH with T30S
VL: B1 VL with E27Q, N93Y, F96L
notes: also called h4G8 CL-34633
B8: CL-34449-IgG (antibody, V domains shown)
VH: B1 VH
VL: B1 VL with E27Q, S30G, N53H, V58I, F87Y, S91T, N93Y, F96L
notes: also called h4G8 CL-34449
B9: CL-34469-IgG (antibody, V domains shown)
VH: B1 VH with D31N
VL: B1 VL with E27Q, F87Y, N93Y, F96L
notes: also called h4G8 CL-34469
B10: CL-34570-IgG (antibody, V domains shown)
VH: B1 VH with T30D, E57T, R104S
VL: B1 VL with E27Q, V58I, F87Y, N93Y, F96L
notes: also called h4G8 CL-34570
B11: 3E2.1_GS_1E3.4 (PR-1613190) (bispecific antibody, human IgG1, kappa, L234A L235A)
heavy: EVQLVQSGAEVKKPGSSVKVSCKASGYTFTESYMYWVKQAPGQGLELIGRIDPEDGSTDYVEKFKNKATLTADKSTSTAYMELSSLRSEDTAVYFCARFGARSYFYPMDAWGQGTTVTVSSGGGGSGGGGSEIQLVQSGSELKKPGASVKVSCKASGYPFTNSGMYWVKQAPGQGLEYMGWINTEAGKPTYADDFKGRFVFSLDTSVSTAYLQISSLKAEDTAVYFCARWGYISDNSYGWFDYWGQGTLVTVSSASTKGPSVFPLAPSSKSTSGGTAALGCLVKDYFPEPVTVSWNSGALTSGVHTFPAVLQSSGLYSLSSVVTVPSSSLGTQTYICNVNHKPSNTKVDKKVEPKSCDKTHTCPPCPAPEAAGGPSVFLFPPKPKDTLMISRTPEVTCVVVDVSHEDPEVKFNWYVDGVEVHNAKTKPREEQYNSTYRVVSVLTVLHQDWLNGKEYKCKVSNKALPAPIEKTISKAKGQPREPQVYTLPPSREEMTKNQVSLTCLVKGFYPSDIAVEWESNGQPENNYKTTPPVLDSDGSFFLYSKLTVDKSRWQQGNVFSCSVMHEALHNAYTQKSLSLSPGK
light: ETVLTQSPATLSLSPGERATLSCRASESVSTLMHWYQQKPGQQPRLLIYGASNLESGVPARFSGSGSGTDFTLTISSLEPEDFAVYFCQQSWNDPWTFGGGTKVEIKGGSGGGGSGGATQLTQSPSSLSASVGDRVTISCRASEGVYSYMHWYQQKPGKQPKLLIYKASNLASGVPSRFSGSGSGTDFTLTISSLQPEDFATYFCHQNWNDPLTFGQGTKLEIKRTVAAPSVFIFPPSDEQLKSGTASVVCLLNNFYPREAKVQWKVDNALQSGNSQESVTEQDSKDSTYSLSSTLTLSKADYEKHKVYACEVTHQGLSSPVTKSFNRGEC
B12: 3E2.1_GS_CL-34565 (PR-1613189) (bispecific antibody, human IgG1, kappa, L234A L235A)
heavy: EVQLVQSGAEVKKPGSSVKVSCKASGYTFTESYMYWVKQAPGQGLELIGRIDPEDGSTDYVEKFKNKATLTADKSTSTAYMELSSLRSEDTAVYFCARFGARSYFYPMDAWGQGTTVTVSSGGGGSGGGGSEVQLVQSGSELKKPGASVKVSCKASGYTFTDYGMYWVRQAPGQGLEWMGWIDTETGDPTYADDFKGRFVFSLDTSVSTAYLQISSLKAEDTAVYYCARTNYYYRNYMFYFDYWGQGTMVTVSSASTKGPSVFPLAPSSKSTSGGTAALGCLVKDYFPEPVTVSWNSGALTSGVHTFPAVLQSSGLYSLSSVVTVPSSSLGTQTYICNVNHKPSNTKVDKKVEPKSCDKTHTCPPCPAPEAAGGPSVFLFPPKPKDTLMISRTPEVTCVVVDVSHEDPEVKFNWYVDGVEVHNAKTKPREEQYNSTYRVVSVLTVLHQDWLNGKEYKCKVSNKALPAPIEKTISKAKGQPREPQVYTLPPSREEMTKNQVSLTCLVKGFYPSDIAVEWESNGQPENNYKTTPPVLDSDGSFFLYSKLTVDKSRWQQGNVFSCSVMHEALHNAYTQKSLSLSPGK
light: ETVLTQSPATLSLSPGERATLSCRASESVSTLMHWYQQKPGQQPRLLIYGASNLESGVPARFSGSGSGTDFTLTISSLEPEDFAVYFCQQSWNDPWTFGGGTKVEIKGGSGGGGSGGEIVLTQSPATLSLSPGERATLFCRASQSVSNHMHWYQQKPGQAPRLLIYGASILESGVPARFSGSGSGTDFTLTISSLEPEDFAVYYCQQSWYDPITFGQGTKLEIKRTVAAPSVFIFPPSDEQLKSGTASVVCLLNNFYPREAKVQWKVDNALQSGNSQESVTEQDSKDSTYSLSSTLTLSKADYEKHKVYACEVTHQGLSSPVTKSFNRGEC
B13: 9E8.4_GS_4G8.5 (PR-1613188) (bispecific antibody, human IgG1, kappa, L234A L235A)
heavy: EVTLRESGPALVKPTQTLTLTCTFSGFSLSTYGMGVGWIRQPPGKALEWLANIWWDDDKYYNPSLKNRLTISKDTSKNQVVLTMTNMDPVDTATYYCARIESIGTTYSFDYWGQGTMVTVSSGGGGSGGGGSEIQLVQSGSELKKPGASVKVSCKASGYTFTNYGMYWVRQAPGQGLEYMGWINTETGKPTYADDFKGRFVFSLDTSVSTAYLQISSLKAEDTAVYFCARTNYYYRSYIFYFDYWGQGTMVTVSSASTKGPSVFPLAPSSKSTSGGTAALGCLVKDYFPEPVTVSWNSGALTSGVHTFPAVLQSSGLYSLSSVVTVPSSSLGTQTYICNVNHKPSNTKVDKKVEPKSCDKTHTCPPCPAPEAAGGPSVFLFPPKPKDTLMISRTPEVTCVVVDVSHEDPEVKFNWYVDGVEVHNAKTKPREEQYNSTYRVVSVLTVLHQDWLNGKEYKCKVSNKALPAPIEKTISKAKGQPREPQVYTLPPSREEMTKNQVSLTCLVKGFYPSDIAVEWESNGQPENNYKTTPPVLDSDGSFFLYSKLTVDKSRWQQGNVFSCSVMHEALHNAYTQKSLSLSPGK
light: EFVLTQSPGTLSLSPGERATLSCERSSGDIGDSYVSWYQQKPGQAPRLVIYADDQRPSGIPDRFSGSGSGTDFTLTISRLEPEDFAVYYCQSYDINIDIVFGGGTKVEIKGGSGGGGSGGATQLTQSPSLSASVGDRVTITCRASESVSTHMHWYQQKPGKQPKLLIYGASNLESGVPSRFSGSGSGTDFTLTISSLQPEDFATYFCQQSWNDPFTFGQGTKLEIKRTVAAPSVFIFPPSDEQLKSGTASVVCLLNNFYPREAKVQWKVDNALQSGNSQESVTEQDSKDSTYSLSSTLTLSKADYEKHKVYACEVTHQGLSSPVTKSFNRGEC

Target: T1, recombinant human VEGF165 (human, UniProt P15692 207-395)
Assay: cell-based or functional assay
T1 sequence (P15692 other isoform, or with tags, fused parts or gaps limits assumed): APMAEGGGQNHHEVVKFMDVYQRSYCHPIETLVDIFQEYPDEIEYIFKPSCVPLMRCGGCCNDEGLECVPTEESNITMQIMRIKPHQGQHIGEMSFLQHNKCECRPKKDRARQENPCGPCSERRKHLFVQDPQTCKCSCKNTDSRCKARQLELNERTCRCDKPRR

| Binder | hVEGF165 IC50 (nM), Potency HMVEC-d (hVEGF165-induced proliferation) [nM] |
| --- | --- |
| B1 | 0.117 |
| B2 | 0.139 |
| B3 | 0.127 |
| B4 | 0.126 |
| B5 | 0.106 |
| B6 | 0.116 |
| B7 | 0.138 |
| B8 | 0.077 |
| B9 | 0.094 |
| B10 | 0.11 |

Target: recombinant human VEGF165 (human, UniProt P15692 207-395)
Assay: cell-based or functional assay
Target sequence in this assay (P15692 other isoform, or with tags, fused parts or gaps limits assumed): as above

| Binder | Potency IC50 (nM), HMVEC-d hVEGF165 (proliferation) [nM] |
| --- | --- |
| B11 | 0.709 |
| B12 | 0.063 |
| B13 | 0.354 |

Target: recombinant human PDGF-BB (human, UniProt P01127 82-190)
Sequence (P01127 82-190 limits assumed): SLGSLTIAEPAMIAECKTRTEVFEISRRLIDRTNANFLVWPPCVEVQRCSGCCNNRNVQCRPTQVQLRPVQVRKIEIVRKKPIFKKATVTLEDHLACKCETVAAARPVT
Assay: cell-based or functional assay

| Binder | Potency IC50 (nM), NIH-3T3 hPDGF-BB (proliferation) [nM] |
| --- | --- |
| B11 | 0.896 |
| B12 | 1.16 |
| B13 | 0.108 |

Target: T1, recombinant human VEGF165
Assay: SPR (Biacore), antibody captured by anti-human Fc, hVEGF165 in solution
Description: Unreacted moieties on the biosensor surface were blocked with ethanolamine. For kinetic analysis, rate equations derived from the 1:1 Langmuir binding model were fitted simultaneously to multiple antigen injections (using global fit analysis) with the use of Scrubber 2 (BioLogic Software), Biacore Biaevaluation 4.0.1 software or Biacore T100 Evaluation software. Purified antibodies or DVD-Ig molecules were diluted in running buffer for capture across goat anti-human Fc reaction surfaces. Antibodies or DVD-Ig molecules to be captured as a ligand (1 μg/ml) were injected over reaction matrices at a flow rate of 10 μl/minute. During the assay, all measurements were referenced against the capture surface alone (i.e., with no captured antibody or DVD-Ig molecule). […] The equilibrium dissociation constant KD (M) of the reaction between antibodies and the target antigen was then calculated from the kinetic rate constants by the following formula: KD=Koff/Kₒₙ. Binding was recorded as a function of time and kinetic rate constants were calculated. In this assay, on-rates as fast as 10⁶M⁻¹s⁻¹ and off-rates as slow as 10⁻⁶ s⁻¹ could be measured.
(§1) Affinity matured humanized anti-VEGF antibodies were characterized for hVEGF₁₆₅ binding and potency. Binding affinity of these molecules to hVEGF₁₆₅ was determined by Biacore analysis (Example 1.1). Potency was evaluated in both cell-based and ELISA formats. The ability to block binding of hVEGF₁₆₅ to hVEGFR2 was evaluated in a competition ELISA (Example 1.4) Inhibition of hVEGF₁₆₅-induced cell proliferation was assessed using HMVEC-d cells (Example 1.10).

| Binder | Kd [pM] | kon [M⁻¹ s⁻¹] |
| --- | --- | --- |
| B1 | 0.54 | 2e+07 |
| B2 | 0.85 | 8.4e+06 |
| B3 | 0.24 | 3.3e+07 |
| B4 | 0.4 | 2e+07 |
| B5 | 0.52 | 2.7e+07 |
| B6 | 0.53 | 2e+07 |
| B7 | 0.24 | 1.7e+07 |
| B8 | 0.85 | 1.1e+07 |
| B9 | 0.62 | 1.5e+07 |
| B10 | 0.29 | 1.9e+07 |

Target: T1, recombinant human VEGF165
Assay: competition ELISA: antibody titrated against biotinylated hVEGF165, binding to plate-coated hVEGF-R2-Fc
Description: To identify molecules that could block the binding of hVEGF₁₆₅ to the hVEGF-R2 (KDR/Flk-1) receptor, a competition ELISA was performed. […] Plates were then washed four times with wash buffer (TBS, 0.05% Tween-20) and blocked with Superblock blocking buffer (Thermo Scientific, cat#37535). […] The pre-incubated sample/hVEGF₁₆₅ complex was added to the coated plate at 50 μL in duplicate and incubated for 30 minutes at 25° C. with shaking. Following incubation, plates were washed four times with wash buffer. Streptavidin-polyHRP-40 (Fitzgerald cal#65r-s104phrp) was diluted in assay diluent (10% Superblock containing 0.05% surfactamps) and added to plates (50 μL) for 45 minutes at 25° C. with shaking. Plates were washed four times with wash buffer and developed with the addition of Enhanced K-blue TMB substrate (Neogen cat#308177). The reaction was stopped with 2N sulfuric acid (VWR, cat# BDH3500-1) and the absorbance was read at 450 nm-570 nm. A decrease in observed optical density indicates the test molecule is blocking the hVEGF₁₆₅ binding to the hVEGF-R2-Fc. Data was analyzed using Softmax Pro 4.8 software and IC₅₀ values calculated using a sigmoidal dose response (variable slope) fit in GraphPad Prism 5.
as §1

| Binder | IC50 [pM] |
| --- | --- |
| B1 | < 100 |
| B2 | < 100 |
| B3 | < 100 |
| B4 | < 100 |
| B5 | < 100 |
| B6 | < 100 |
| B7 | < 100 |
| B8 | < 100 |
| B9 | < 100 |
| B10 | < 100 |

— patent US20170015742A1 (published 2017)
